B1: ADC 55B-A-14 (bispecific antibody, human IgG1, kappa, L234A L235A)
light: DIQMTQSPSSLSASVGDRVTITCKSSQSLLYTSSQKNYLAWYQQKPGKAPKLLIYWASTRESGVPSRFSGSGSGTDFTLTISSLQPEDFATYYCQQYYAYPWTFGQGTKVEIKRTVAAPSVFIFPPSDEQLKSGTASVVCLLNNFYPREAKVQWKVDNALQSGNSQESVTEQDSKDSTYSLSSTLTLSKADYEKHKVYACEVTHQGLSSPVTKSFNRGEC
heavy: not shown
chain 1: AIQLTQSPSSLSASVGDRVTITCRASQDISSALVWYQQKPGKAPKLLIYDASSLESGVPSRFSGSESGTDFTLTISSLQPEDFATYYCQQFNSYPLTFGGGTKVEIKSSASTKGPSVFPLAPSSKSTSGGTAALGCLVKDYFPEPVTVSWNSGALTSGVHTFPAVLQSSGLYSLSSVVTVPSSSLGTQTYICNVNHKPSNTKVDKKVEPKSC
chain 2: QVQLVESGGGVVQPGRSLRLSCAASGFTFSTYGMHWVRQAPGKGLEWVAVIWDDGSYKYYGDSVKGRFTISRDNSKNTLYLQMNSLRAEDTAVYYCARDGITMVRGVMKDYFDYWGQGTLVTVSSASVAAPSVFIFPPSDEQLKSGTASVVCLLNNFYPREAKVQWKVDNALQSGNSQESVTEQDSKDSTYSLSSTLTLSKADYEKHKVYACEVTHQGLSSPVTKSFNRGECDKTHTCPPCPAPEAAGGPSVFLFPPKPKDTLMISRTPEVTCVVVDVSHEDPEVKFNWYVDGVEVHNAKTKPREEQYNSTYRVVSVLTVLHQDWLNGKEYKCKVSNKALAAPIEKTISKAKGQPREPQVCTLPPSRDELTKNQVSLSCAVKGFYPSDIAVEWESNGQPENNYKTTPPVLDSDGSFFLVSKLTVDKSRWQQGNVFSCSVMHEALHNHYTQKSLSLSPGK
modifications: linker-payload A-14 on reduced Cys sulfhydryls (sites not given); DAR of the whole ADC approximately 8
B2: ADC 56B-A-14 (bispecific antibody)
chain 1: not shown
chain 2: DIQMTQSPSSLSASVGDRVTITCKSSQSLLYTSSQKNYLAWYQQKPGKAPKLLIYWASTRESGVPSRFSGSGSGTDFTLTISSLQPEDFATYYCQQYYAYPWTFGQGTKVEIKGGGGSGGGGSGGGGSEVQLVESGGGLVQPGGSLRLSCAASGYTFTSYWLHWVRQAPGKGLEWVGMIDPSNSDTRFNPNFKDRFTISADTSKNTAYLQMNSLRAEDTAVYYCATYRSYVTPLDYWGQGTLVTVSSGGGGDKTHTCPPCPAPEAAGGPSVFLFPPKPKDTLMISRTPEVTCVVVDVSHEDPEVKFNWYVDGVEVHNAKTKPREEQYNSTYRVVSVLTVLHQDWLNGKEYKCKVSNKALAAPIEKTISKAKGQPREPQVCTLPPSRDELTKNQVSLSCAVKGFYPSDIAVEWESNGQPENNYKTTPPVLDSDGSFFLVSKLTVDKSRWQQGNVFSCSVMHEALHNHYTQKSLSLSPGK
modifications: linker-payload A-14 on reduced Cys sulfhydryls (sites not given); DAR of the whole ADC approximately 4

Target: human c-MET (human, UniProt P08581 25-1390)
Sequence (P08581 25-1390): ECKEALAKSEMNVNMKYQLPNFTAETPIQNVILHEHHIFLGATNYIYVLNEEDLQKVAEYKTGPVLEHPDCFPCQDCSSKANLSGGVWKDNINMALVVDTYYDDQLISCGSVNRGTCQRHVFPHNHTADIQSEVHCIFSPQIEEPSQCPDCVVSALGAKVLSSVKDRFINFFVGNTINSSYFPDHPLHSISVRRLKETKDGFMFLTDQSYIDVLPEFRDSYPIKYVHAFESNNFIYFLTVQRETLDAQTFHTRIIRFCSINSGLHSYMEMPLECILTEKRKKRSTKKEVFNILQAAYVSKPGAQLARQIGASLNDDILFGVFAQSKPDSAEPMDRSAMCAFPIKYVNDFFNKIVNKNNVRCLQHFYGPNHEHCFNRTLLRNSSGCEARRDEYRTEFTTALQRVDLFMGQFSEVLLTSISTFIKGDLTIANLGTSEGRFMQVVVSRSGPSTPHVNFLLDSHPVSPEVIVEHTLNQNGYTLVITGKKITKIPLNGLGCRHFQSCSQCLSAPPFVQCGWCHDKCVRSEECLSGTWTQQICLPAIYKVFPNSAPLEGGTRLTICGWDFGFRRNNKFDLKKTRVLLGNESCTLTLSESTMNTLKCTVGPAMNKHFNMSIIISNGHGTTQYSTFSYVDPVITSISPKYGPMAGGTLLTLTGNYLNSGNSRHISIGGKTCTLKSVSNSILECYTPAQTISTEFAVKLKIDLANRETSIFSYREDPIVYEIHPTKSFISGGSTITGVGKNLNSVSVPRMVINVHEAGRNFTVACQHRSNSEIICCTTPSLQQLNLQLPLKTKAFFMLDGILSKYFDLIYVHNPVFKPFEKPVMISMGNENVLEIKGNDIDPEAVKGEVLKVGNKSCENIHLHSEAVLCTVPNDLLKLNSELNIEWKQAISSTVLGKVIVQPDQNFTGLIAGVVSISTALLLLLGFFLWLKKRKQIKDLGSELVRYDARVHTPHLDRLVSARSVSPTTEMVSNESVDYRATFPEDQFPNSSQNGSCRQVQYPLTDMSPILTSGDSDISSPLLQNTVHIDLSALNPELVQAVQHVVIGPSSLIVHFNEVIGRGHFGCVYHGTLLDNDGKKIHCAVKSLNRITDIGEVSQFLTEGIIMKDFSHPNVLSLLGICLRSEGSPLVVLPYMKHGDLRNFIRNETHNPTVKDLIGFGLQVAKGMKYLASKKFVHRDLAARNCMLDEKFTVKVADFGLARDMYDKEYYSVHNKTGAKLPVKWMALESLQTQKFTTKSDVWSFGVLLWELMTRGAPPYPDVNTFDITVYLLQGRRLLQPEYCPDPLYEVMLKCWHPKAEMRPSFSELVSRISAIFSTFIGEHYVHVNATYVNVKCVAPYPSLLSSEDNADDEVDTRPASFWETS
Test: cell-based or functional assay

| Binder | IC50, in vitro cell killing (CCK8) on EBC-1 cells [nM] | IC50, in vitro cell killing (CCK8) on MKN45 cells [nM] |
| --- | --- | --- |
| B1 | 0.42 | 0.4 |
| B2 | 2.95 | 1.17 |
